Data on three molecules can be found in patent US20070231899A1 (published 2007).

Assay [1] has as its target tissue-type plasminogen activator (t-PA) (UniProt P00750). The assay is described as follows: surface plasmon resonance, phospholipid-associated AIIt; AIIt with t-PA.
Assay [2] has as its target plasmin (Homo sapiens (Human)) (UniProt P00747). The assay can be described thus: surface plasmon resonance, phospholipid-associated AIIt; AIIt with plasmin.
In assay [3] the target is [Glu]-plasminogen (human) (UniProt P00747). The assay is described as follows: surface plasmon resonance, phospholipid-associated AIIt; AIIt with plasminogen.
Assay [4] addresses plasmin (Homo sapiens (Human)) (UniProt P00747). The assay can be described thus: surface plasmon resonance, phospholipid-associated annexin A2; phospholipid-associated annexin A2 with plasmin.
The target of assay [5] is T1, Annexin II heterotetramer (AIIt) purified from bovine lung (bovine, UniProt P04272 2-339; P60902 2-97).
T1 construct: also called annexin II tetramer
The assay is described as follows: iodinated A61 (0.008-5 µM) on AIIt bound to phospholipid-coated wells, gamma counting. From the text:
Binding of A₆₁ to AIIt—The purified A₆₁ was iodinated according to manufacturer's procedures. Iodinated A₆₁ retained biological activity as determined by the endothelial cell proliferation assay (Kassam et al., 2001). 96-well Immulon-1 Removawell strips (Dynex Technologies) were coated with phospholipid mixture containing 3:1 ratio of phosphatidylserine to phosphatidylcholine and air-dried. The coated strips were blocked with 1% fatty acid-free bovine serum albumin (BSA) in a buffer containing 20 mM Hepes (pH 7.4), 140 mM NaCl, and 2 mM CaCl₂ (buffer A) at room temperature for 2 h. The strips were washed with buffer A and incubated with 1 μM AIIt in buffer A at room temperature for 4 h. The strips were then washed and incubated with 0.008-5 μM iodinated A₆₁ with or without 30-fold molar excess of cold A₆₁ or BSA at 4° C. After overnight incubation, the strips were washed five times with PBS, and individual wells were detached and measured for radioactivity with a γ-counter. The data shown (n=6) are the average of two separate experiments.

Sequence of [Glu]-plasminogen (human) (P00747 20-810 limits assumed): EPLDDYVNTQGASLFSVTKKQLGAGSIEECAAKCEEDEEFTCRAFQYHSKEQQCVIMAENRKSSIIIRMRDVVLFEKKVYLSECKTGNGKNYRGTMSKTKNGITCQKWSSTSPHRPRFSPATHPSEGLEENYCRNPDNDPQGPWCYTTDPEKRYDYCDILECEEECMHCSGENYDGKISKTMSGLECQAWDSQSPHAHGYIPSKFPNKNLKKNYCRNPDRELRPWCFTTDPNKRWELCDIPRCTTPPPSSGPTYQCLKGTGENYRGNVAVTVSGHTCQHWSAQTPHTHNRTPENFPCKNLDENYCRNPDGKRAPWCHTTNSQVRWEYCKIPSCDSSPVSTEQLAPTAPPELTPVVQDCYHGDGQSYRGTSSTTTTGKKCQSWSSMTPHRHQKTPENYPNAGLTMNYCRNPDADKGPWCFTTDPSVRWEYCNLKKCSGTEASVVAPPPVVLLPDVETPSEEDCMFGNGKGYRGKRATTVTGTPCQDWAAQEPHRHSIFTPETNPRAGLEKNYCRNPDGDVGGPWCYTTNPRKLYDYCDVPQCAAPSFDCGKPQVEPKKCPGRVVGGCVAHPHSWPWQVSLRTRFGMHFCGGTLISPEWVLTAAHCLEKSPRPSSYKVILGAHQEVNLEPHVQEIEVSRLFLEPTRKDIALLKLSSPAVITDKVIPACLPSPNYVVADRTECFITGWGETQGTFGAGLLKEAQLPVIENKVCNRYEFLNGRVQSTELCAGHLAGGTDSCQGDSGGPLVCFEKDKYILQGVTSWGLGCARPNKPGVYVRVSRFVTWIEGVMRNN
T1 sequence (P04272 2-339 limits assumed, chain 1 of 2): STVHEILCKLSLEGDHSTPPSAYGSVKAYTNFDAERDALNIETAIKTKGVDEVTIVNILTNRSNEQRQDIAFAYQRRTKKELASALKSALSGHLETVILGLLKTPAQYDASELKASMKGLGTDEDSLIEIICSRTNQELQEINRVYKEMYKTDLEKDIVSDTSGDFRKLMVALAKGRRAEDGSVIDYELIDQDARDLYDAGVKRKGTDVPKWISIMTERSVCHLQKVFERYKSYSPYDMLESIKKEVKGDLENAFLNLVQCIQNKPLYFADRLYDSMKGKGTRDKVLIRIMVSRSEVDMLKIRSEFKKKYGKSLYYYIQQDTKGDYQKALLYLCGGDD
T1 sequence (P60902 2-97 limits assumed, chain 2 of 2): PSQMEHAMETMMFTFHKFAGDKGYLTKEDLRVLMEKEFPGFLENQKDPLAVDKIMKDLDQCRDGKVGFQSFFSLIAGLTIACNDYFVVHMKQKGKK
Sequence of tissue-type plasminogen activator (t-PA) (P00750 36-562 limits assumed): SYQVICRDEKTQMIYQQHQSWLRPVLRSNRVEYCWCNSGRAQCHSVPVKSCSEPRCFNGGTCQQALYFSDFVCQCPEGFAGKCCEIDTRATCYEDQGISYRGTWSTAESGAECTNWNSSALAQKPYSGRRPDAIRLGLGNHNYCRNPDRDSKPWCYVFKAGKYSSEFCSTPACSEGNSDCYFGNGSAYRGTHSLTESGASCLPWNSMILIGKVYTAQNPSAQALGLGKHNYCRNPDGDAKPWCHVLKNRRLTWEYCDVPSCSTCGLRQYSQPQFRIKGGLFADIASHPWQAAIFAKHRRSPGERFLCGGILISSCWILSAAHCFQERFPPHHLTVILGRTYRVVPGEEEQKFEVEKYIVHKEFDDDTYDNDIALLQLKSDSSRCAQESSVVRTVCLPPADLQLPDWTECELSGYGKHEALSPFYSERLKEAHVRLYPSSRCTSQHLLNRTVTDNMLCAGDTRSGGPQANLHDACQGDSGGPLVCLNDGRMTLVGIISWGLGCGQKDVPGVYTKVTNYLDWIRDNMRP

For “Annexin II heterotetramer (AIIt), phospholipid-associated, as used in the surface plasmon resonance study of Example 12 (from UniProt P07355 2-339)”, the dissociation constant Kd in assay [1] is 680 nM; in assay [2], 750 nM; in assay [3], 110 nM.
As for “Annexin A2 (p36), phospholipid-associated (from UniProt P07355 2-339)”, the dissociation constant Kd in assay [4] was determined as 780 nM.

B1: A61 antiangiogenic plasminogen fragment (Lys78-Lys468 of plasminogen) (other)
chain: KVYLSECKTGNGKNYRGTMSKTKNGITCQKWSSTSPHRPRFSPATHPSEGLEENYCRNPDNDPQGPWCYTTDPEKRYDYCDILECEEECMHCSGENYDGKISKTMSGLECQAWDSQSPHAHGYIPSKFPNKNLKKNYCRNPDRELRPWCFTTDPNKRWELCDIPRCTTPPPSSGPTYQCLKGTGENYRGNVAVTVSGHTCQHWSAQTPHTHNRTPENFPCKNLDENYCRNPDGKRAPWCHTTNSQVRWEYCKIPSCDSSPVSTEQLAPTAPPELTPVVQDCYHGDGQSYRGTSSTTTTGKKCQSWSSMTPHRHQKTPENYPNAGLTMNYCRNPDADKGPWCFTTDPSVRWEYCNLKKCSGTEASVVAPPPVVLLPDVETPSEEDCMFGNGK
modifications: radioiodinated (iodinated with Iodobeads) in the binding assay
notes: also called AAPF; anti-angiogenesis plasmin fragment
With B1, the Kd in assay [5] was 1000 nM.
